According to patent US20220289816A1, “IMMUNOTHERAPY WITH B*07 RESTRICTED PEPTIDES AND COMBINATION OF PEPTIDES AGAINST CANCERS AND RELATED METHODS” (Immatics Biotechnologies GmbH, priority 2018, published 2022):

target: HLA-B*07 (Homo sapiens, UniProt P01889); assay: MHC binding assay (UV-ligand exchange, ELISA of stabilized MHC complexes); conditions: peptide exchange yield on HLA-B*07, UV-ligand exchange
From the text: Candidate peptides for T cell based therapies according to the present invention were further tested for their MHC binding capacity (affinity). The individual peptide-MHC complexes were produced by UV-ligand exchange, where a UV-sensitive peptide is cleaved upon UV-irradiation and exchanged with the peptide of interest as analyzed. Only peptide candidates that can effectively bind and stabilize the peptide-receptive MHC molecules prevent dissociation of the MHC complexes. To determine the yield of the exchange reaction, an ELISA was performed based on the detection of the light chain (β2m) of stabilized MHC complexes. The assay was performed as generally described in Rodenko et al. (Rodenko et al., 2006)
96 well MAXISorp plates (NUNC) were coated over night with 2 ug/ml streptavidin in PBS at room temperature, washed 4× and blocked for 1 h at 37° C. in 2% BSA containing blocking buffer. […] Peptide-MHC monomers of the UV-exchange reaction were diluted 100-fold in blocking buffer. Samples were incubated for 1 h at 37° C., washed four times, incubated with 2 ug/ml HRP conjugated anti-[…] for 1 h at 37° C., washed again and detected with TMB solution that is stopped with […]. Absorption was measured at 450 nm. Candidate peptides that show a high exchange yield (preferably higher than 50%, most preferred higher than 75%) are generally preferred for a generation and production of antibodies or fragments thereof, and/or T cell receptors or fragments thereof, as they show sufficient avidity to the MHC molecules and prevent dissociation of the MHC complexes.

| Substance | Peptide exchange |
| --- | --- |
| 29 (APLRVHITSL; listed as Homo sapiens) [compound 29] | ++++ (>75% = ++++) |
| 14 (AVHEIGHSL; listed as Homo sapiens) [compound 14] | +++ (>50 = +++) |
| 149 (SPSSVFTSK; listed as Homo sapiens) [compound 149] | +++ (>50 = +++) |
| 111 (YPLQQTNVY; listed as Homo sapiens) [compound 111] | + (>10% = +) |
| 98 (FPCSALLACF; listed as Homo sapiens) [compound 98] | ++++ (>75% = ++++) |
| 27 (RIRVTSEVL; listed as Homo sapiens) [compound 27] | +++ (>50 = +++) |
| 210 (IPENRVVSY; listed as Homo sapiens) [compound 210] | ++ (>20% = ++) |
| 352 (LPAFSKIGGIL; listed as Homo sapiens) [compound 352] | ++++ (>75% = ++++) |
| 496 (MPAVSGPGPLF; listed as Homo sapiens) [compound 496] | +++ (>50 = +++) |
| 468 (LPSLHVLVL; listed as Homo sapiens) [compound 468] | ++++ (>75% = ++++) |
| 120 (TVRPKNAAL; listed as Homo sapiens) [compound 120] | +++ (>50 = +++) |
| 450 (SAAARALLP; listed as Homo sapiens) [compound 450] | + (>10% = +) |
| 355 (APKTSFIAA; listed as Homo sapiens) [compound 355] | ++++ (>75% = ++++) |
| 291 (SPSKSLEM; listed as Homo sapiens) [compound 291] | +++ (>50 = +++) |
| 123 (RPRLRDLPAL; listed as Homo sapiens) [compound 123] | +++ (>50 = +++) |
| 182 (RPLPVSPARAL; listed as Homo sapiens) [compound 182] | +++ (>50 = +++) |
| 346 (IPMPRITWL; listed as Homo sapiens) [compound 346] | ++++ (>75% = ++++) |

| Substance | Peptide exchange |
| --- | --- |
| 461 (MPHLGPGILL; listed as Homo sapiens) [compound 461] | ++++ (>75% = ++++) |
| 360 (SPASRSISLL; listed as Homo sapiens) [compound 360] | ++++ (>75% = ++++) |
| 359 (SPRRLVELAGQSL; listed as Homo sapiens) [compound 359] | ++++ (>75% = ++++) |
| 281 (NPRSPPATM; listed as Homo sapiens) [compound 281] | ++++ (>75% = ++++) |
| 152 (SSASFSSELFRH; listed as Homo sapiens) [compound 152] | +++ (>50 = +++) |
| 465 (VPKSLPYVL; listed as Homo sapiens) [compound 465] | ++++ (>75% = ++++) |
| 165 (RPSKEMQVTI; listed as Homo sapiens) [compound 165] | ++++ (>75% = ++++) |
| 113 (KPHLDRRGAVI; listed as Homo sapiens) [compound 113] | ++++ (>75% = ++++) |
| 263 (SQRPPATSQA; listed as Homo sapiens) [compound 263] | ++ (>20% = ++) |
| 170 (APEGKRLGF; listed as Homo sapiens) [compound 170] | ++++ (>75% = ++++) |
| 472 (LPMPAITWY; listed as Homo sapiens) [compound 472] | ++ (>20% = ++) |
| 176 (QPLDICHSF; listed as Homo sapiens) [compound 176] | ++++ (>75% = ++++) |
| 328 (LPLHRGDLVI; listed as Homo sapiens) [compound 328] | +++ (>50 = +++) |
| 10 (SPMEAELVRRIL; listed as Homo sapiens) [compound 10] | ++++ (>75% = ++++) |
| 304 (SPLIGDFPAF; listed as Homo sapiens) [compound 304] | ++ (>20% = ++) |
| 272 (SSPRGTTSTL; listed as Homo sapiens) [compound 272] | +++ (>50 = +++) |
